Laboratory results as given in the supplement of paper PMC9732359.
± gives the uncertainty stated by the source.

Test: protein stability index of a GFP-peptide fusion (yeast GPS) (PSI 1-4); higher = more stable; sorted into four equal gates, so the index is relative within each strain
Outline: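 Tiled yeast protein peptides of 17 residues were each joined downstream of GFP, on plasmids that also express Cherry. The pooled library was maintained in yeast, and mid-log cultures in leucine-free medium were sorted into four equal gates on the GFP/Cherry ratio. Plasmids from every gate were amplified by PCR and sequenced on Illumina, with barcodes linking reads to strains. The protein stability index of a peptide is its gate-number-weighted read frequency summed over the gates.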

Sequence	protein stability index (doa10∆)	protein stability index (pdr5∆)	protein stability index (san1∆)	protein stability index (ubr1∆)
EAVKQAAKIIYLAHEDN [PRE10]	2.75 ± 0.19	3.02 ± 0.12	3.3 ± 0.22	2.55 ± 0.14
EGNQGSLQEDVSFDFNG [MED8]	3.17 ± 0.12	3.41 ± 0.085	3.23 ± 0.062	3.2 ± 0.07
EARLFNIWGTVRTNRFD [ECM29]	2.61 ± 0.19	2.14 ± 0.15	–	2.32 ± 0.28
DSSGVNDLHHSEKKYAE [RPN3]	2.69 ± 0.11	3.24 ± 0.16	2.88 ± 0.21	–
QERQRQIQKNGPEITPE [PRP8]	2.88 ± 0.11	3.2 ± 0.11	2.77 ± 0.11	2.85 ± 0.092
LKNKREIYRISFQLSKI [RPS9B]	3.34 ± 0.18	3.66 ± 0.16	3.54 ± 0.062	3.38 ± 0.12
EDRNKIHQYLFQEGVVV [RPS10A]	2.37 ± 0.064	2.37 ± 0.06	1.66 ± 0.12	2.61 ± 0.058
DRYGNRYFWLDHNGVPF [ITC1]	2.8 ± 0.094	3.18 ± 0.098	2.92 ± 0.051	2.78 ± 0.082
YGIVAMAATATDKIGRS [FAS2]	1.64 ± 0.063	1.82 ± 0.06	1.65 ± 0.092	2.26 ± 0.051
TAEAPTLSFNFSQKANK [YOR098C/NUP1]	3.27 ± 0.081	3.27 ± 0.086	3.24 ± 0.056	3.26 ± 0.085
FYLMVSSLSFGPENALN [YJL039C/NUP192]	1.68 ± 0.048	1.37 ± 0.047	1.39 ± 0.12	1.31 ± 0.051
VGVVFGSGAANENPYNN [COR1]	3.24 ± 0.15	3.23 ± 0.088	3.21 ± 0.087	3.07 ± 0.12
ECFISMQSTSPAVKQWD [SWI1]	2.34 ± 0.083	2.38 ± 0.058	2.4 ± 0.086	2.65 ± 0.06
EYIDAEEEESILIAMQP [RPB2]	3.37 ± 0.076	3.41 ± 0.091	3.13 ± 0.067	3.46 ± 0.091
NDFFDNGDNLYGNDEEV [RPN4]	1.21 ± 0.2	1.62 ± 0.29	–	1.05 ± 0.067
ILDTSQSESRQKRQLHD [SNU114]	3.23 ± 0.11	3.12 ± 0.084	1.72 ± 0.24	3.01 ± 0.048
INFERIDEVFSWYLNTF [GRR1]	2.22 ± 0.058	1.91 ± 0.044	2.51 ± 0.1	1.82 ± 0.051
VMSIESLVEVVFYRGMT [FAS1]	1.89 ± 0.1	2.12 ± 0.06	1.39 ± 0.12	2.66 ± 0.097
NTFNYDVKISNDFFDNG [RPN4]	1.94 ± 0.08	2.3 ± 0.07	2.52 ± 0.091	2.48 ± 0.072
